These results are taken from patent US20240366722A1 (ACCELERON PHARMA, published 2024).

Common to all, as to assay: Biacore, steady-state affinity fit
Assay [1] deals with T1, GDF11 (UniProt O95390 299-407).
T1 sequence (looked up): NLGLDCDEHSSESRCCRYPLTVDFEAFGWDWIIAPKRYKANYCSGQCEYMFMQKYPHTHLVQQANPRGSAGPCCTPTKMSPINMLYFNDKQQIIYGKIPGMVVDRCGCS
On the procedure:
(§1) The affinity of ActRIIB variants and other ActRIIB-hFc proteins for several ligands was evaluated in vitro with a Biacore™ instrument. Kd values were obtained by steady-state affinity fit due to the very rapid association and dissociation of the complex, which prevented accurate determination of kₒₙ and koff.

In assay [2] the target is T2, activin B (UniProt P09529 293-407).
T2 sequence (looked up): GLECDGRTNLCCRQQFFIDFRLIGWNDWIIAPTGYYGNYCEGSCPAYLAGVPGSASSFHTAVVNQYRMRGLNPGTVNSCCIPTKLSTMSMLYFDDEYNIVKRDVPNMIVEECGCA
As for the experimental part:
as §1

Assay [3] addresses T3, activin A (UniProt P08476 311-426).
T3 construct: also called ActA
T3 sequence (looked up): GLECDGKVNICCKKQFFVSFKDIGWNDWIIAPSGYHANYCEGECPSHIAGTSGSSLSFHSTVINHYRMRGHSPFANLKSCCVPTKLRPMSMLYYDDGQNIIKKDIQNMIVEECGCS
On the procedure:
as §1

B1: ActRIIB(L79D 25-131)-hFc (Fc fusion)
chain: ETRECIYYNANWELERTNQSGLERCEGEQDKRLHCYASWRNSSGTIELVKKGCWDDDFNCYDRQECVATEENPQVYFCCCEGNFCNERFTHLPEAGGPEVTYEPPPTGGGTHTCPPCPAPELLGGPSVFLFPPKPKDTLMISRTPRVTCVVVDVSHEDPEVKFNWYVDGVEVHNAKTKPREEQYNSTYRVVSVLTVLHQDWLNGKEYKCKVSNKALPAPIEKTISKAKGQPREPQVYTLPPSREEMTKNQVSLTCLVKGFYPSDIAVEWESNGQPENNYKTTPPVLDSDGSFFLYSKLTVDKSRWQQGNVFSCSVMHEALHNHYTQKSLSLSPGK
notes: Cell purified form without leader
In the case of B1, the Kd – broadly, the constant that tells how readily two partners part at equilibrium – in assay [1] was determined as 0.074 nM; in assay [2], 0.621 nM; in assay [3], 22.9 nM.
